The results in this text go back to PMC9769477 (2022).

The assay deals with 9G1. Nature of the assay: BLI. (In general: BLI is a label-free optical method that tracks binding on a fibre tip over time.)

B1: CVA16/SZ05 viral particles (complex)
chain 1: GDPIADMIDQTVNNQVNRSLTALQVLPTAANTEASSHRLGTGVVPALQAAETGASSNASDKNLIETRCVLNHHSTQETAIGNFFSRAGLVSIITMPTTGTQNTDGYVNWDIDLMGYAQLRRKCELFTYMRFDAEFTFVVAKPNGELVPQLLQYMYVPPGAPKPTSRDSFAWQTATNPSVFVKMTDPPAQVSVPFMSPASAYQWFYDGYPTFGEHLQANDLDYGQCPNNMMGTFSIRTVGTEKSPHSITLRVYMRIKHVRAWIPRPLRNQPYLFKTNPNYKGNDIKCTSTSRDKITTL
chain 2: SPSAEACGYSDRVAQLTIGNSTITTQEAANIVIAYGEWPEYCPDTDATAVDKPTRPDVSVNRFFTLDTKSWAKDSKGWYWKFPDVLTEVGVFGQNAQFHYLYRSGFCVHVQCNASKFHQGALLVAVLPEYVLGTIAGGTGNENSHPPYATTQPGQVGAVLTHPYVLDAGIPLSQLTVCPHQWINLRTNNCATIIVPYMNTVPFDSALNHCNFGLLVIPVVPLDFNAGATSEIPITVTIAPMCAEFAGLRQAVKQ
chain 3: GIPTELKPGTNQFLTTDDGVSAPILPGFHPTPPIHIPGEVRNLLEICRVETILEVNNLKTNETTPMQRLCFPVSVQSKTGELCAAFRADPGRDGPWQSTILGQLCRYYTQWSGSLEVTFMFAGSFMATGKMLIAYTPPGGSVPADRITAMLGTHVIWDFGLQSSVTLVVPWISNTHYRAHARAGYFDYYTTGIITIWYQTNYVVPIGAPTTAYIVALAAAQDNFTMKLCKDTEDIEQTANIQ
chain 4: GSQVSTQRSGSHENSNSASEGSTINYTTINYYKDAYAASAGRQDMSQDPKRFTDPVMDVIHEMAPPLK
modifications: biotin (EZ-Link Sulfo-NHS-LC-LC-Biotin labelling of the particles before BLI; sites not stated) | biotin (EZ-Link Sulfo-NHS-LC-LC-Biotin labelling of the particles before BLI; sites not stated) | biotin (EZ-Link Sulfo-NHS-LC-LC-Biotin labelling of the particles before BLI; sites not stated) | biotin (EZ-Link Sulfo-NHS-LC-LC-Biotin labelling of the particles before BLI; sites not stated)
Consider B1, for which binding was put at a Kd of 0.46 nM and the koff was determined as 0.000631 s⁻¹.

By Kd is commonly meant the constant that tells how readily two partners part at equilibrium. High values mean a looser complex, low ones a tighter complex. The term koff denotes the first-order rate constant of dissociation.
